Columns and labels:
[1] = target: T1, 6His-CRP (cAMP receptor protein) (Escherichia coli (K-12 MG1655?)) (UniProt P0ACJ8); assay: EMSA; conditions: 10 mM Tris-HCl pH 7.5, 50 mM NaCl, 5 mM MgSO4, 1 mM DTT, 1 mg/ml BSA, 200 uM cAMP, 10% glycerol, 12 ug/ml poly(dI-dC), 5 nM DNA, 37 C 15 min; 5% PAGE 0.25X TBE …
T1 sequence: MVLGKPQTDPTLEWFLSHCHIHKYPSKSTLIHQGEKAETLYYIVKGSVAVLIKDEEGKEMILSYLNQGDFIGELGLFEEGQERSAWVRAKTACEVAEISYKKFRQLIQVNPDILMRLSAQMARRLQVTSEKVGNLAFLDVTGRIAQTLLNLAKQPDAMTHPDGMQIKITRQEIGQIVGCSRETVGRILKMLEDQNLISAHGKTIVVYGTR

[2] = test system: 6His-CRP (cAMP receptor protein) (Escherichia coli (K-12 MG1655?)); assay: EMSA; conditions: 10 mM Tris-HCl pH 7.5, 50 mM NaCl, 5 mM MgSO4, 1 mM DTT, 1 mg/ml BSA, 200 uM cAMP, 10% glycerol, 12 ug/ml poly(dI-dC), 5 nM DNA, 37 C 15 min; 5% PAGE 0.25X TBE …

Row | Substance | binding [1] | Kd [2] [µM]
1 | GCCTACCGCATCCGCTTGCGTATCGACGGCGTATTGCATCCTTTACCGGATGTTTCACCGGATGCCGGAGTCGCATTAACCGCCAGATTAAAAGTGCTGGGAAACCTGG (double strand) | no binding | 
2 | ytfK promoter region -515/+3 |  | 0.025

— article PMC8600398
